This note sets out measurements from the nanobody polyreactivity screen of Harvey et al. (2022).

This data set can be described thus: yeast display, Sf9 membrane polyspecificity reagent, FACS + sequencing; frameworks hold sequencing errors. In outline:
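A synthetic nanobody library was expressed on Saccharomyces cerevisiae BJ5465 by galactose induction for 36–48 hours. The library was stained for 1 hour at 4 °C with 10% biotinylated, detergent-solubilized Sf9 membrane reagent and enriched with streptavidin microbeads before FACS. Low and high (top ~1%) gates were set on anti-HA fluorescence for expression and streptavidin fluorescence for reagent binding, and each polyreactivity label reflects the gate of origin.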
As to “QVQLVESGGGLVQAGGSLRLSCAASGIIFRPYAMGWYRQAPGKERELVAAISRGGRTKYADSVKGRFTISRDNAKNTVYLQMNSLKPEDTAVYYCAAQFRFTRLVGVAAEYDYGGQGTQVTVSS”, the “polyreactivity (PSR sort gate)” value is recorded as “low polyreactivity”.

For the sequence “QVQLVESGGGLVQAGGSLRLSCAASGIIFRPYAMGWYRQAPGKERELVAAITWSVTSTYYADSVKGRFTISRDNAKNTVYLQMNSLKPEDTAVYYCAATCSYGVSWYEYWGQGTQVTVSS”, the “polyreactivity (PSR sort gate)” value is on record as “high polyreactivity”.

As for “QVQLVESGGGLVQAGGSLRLSCAASGIIFRRYARGWYRQAPGKERELVAAITRGGITYYADSVKGRFTISRDNAKNTVYLQMNSLKPEDTAVYYCAATYSGTYSLGGGYDYWGQGTQVTVSS”, the “polyreactivity (PSR sort gate)” value is on record as “low polyreactivity”.

Turning to “QVQLVESGGGLVQAGGSLRLSCAASGIIFRSYAMGWYRQAPGKERELVAGISRRGGSTYYADSVKGRFTISRDNAKNTVYLQMNSLKPEDTAVYYCAKEVAYKPTGYDYWGQGTQVTVSS”, the “polyreactivity (PSR sort gate)” value is “high polyreactivity”.

As to “QVQLVESGGGLVQAGGSLRLSCAASGIIFRVYTMGWYRQAPGKERELVAGISSGDSTSYADSVKGRFTISRDNAKNTVYLQMNSLKPEDTEVYYCNADGKAGGDYDYWGQGTQVTVSS”, the “polyreactivity (PSR sort gate)” value is listed as “low polyreactivity”.

For “QVQLVESGGGLVQAGGSLRLSCAASGIIFRWNAMGSYRQAPGKERELVAAITRSGGSTYYADSVKGRFTISRDNAKNTVYLQMNSLKPEDTAVYYCAAEYYAPRYKFDYWGQGTQVTVSS”, the “polyreactivity (PSR sort gate)” value is reported as “high polyreactivity”.

In the case of “QVQLVESGGGLVQAGGSLRLSCAASGIIFRWYAMGWYRQAPGKERELLAAITSSGGRTYYADSVKGRFTISRDNAKNTVYFQMNSLKPEDSAVYYCAASYYIVGWDPYDYWGQGTQVTVSS”, the “polyreactivity (PSR sort gate)” value is “high polyreactivity”.

Take “QVQLVESGGGLVQAGGSLRLSCAASGIIFRWYTKGWSRPAPGKERELVAAINYSSGDTYADSEKGRFTISRDNAKNTVYLQMNILKPEDTAVYYCAAEDPEYATYWYKYGYWGQGTQVNVSS”: the “polyreactivity (PSR sort gate)” value is recorded as “low polyreactivity”.

As to “QVQLVESGGGLVQAGGSLRLSCAASGIIFRYAMGWYRQAPGKERELVAAIRKSDGSTYYADSVKGRFTISRDNAKNTVYLQMNSLKPEDTAVYYCNAVTVGLYDYWGQGTQVTVSS”, the “polyreactivity (PSR sort gate)” value is “high polyreactivity”.

As to “QVQLVESGGGLVQAGGSLRLSCAASGIIFRYAMGWYRQSPGKERELVARITVGSTYYADSVKGRFTISRDNAKNTVYLQMNSLKPEDTAVYYCNKDSGEDDRWPYDYWGQGTQVTVSS”, the “polyreactivity (PSR sort gate)” value was “low polyreactivity”.

For the sequence “QVQLVESGGGLVQAGGSLRLSCAASGIIFRYYAMGWYRQAPGKERELVAAISRSGARTYYADTVKGRFTISRDNAKNTVFLQRNSLKPEDTAVYYCATDPTSGRFYYWGQGTQVTVSS”, the “polyreactivity (PSR sort gate)” value is on record as “high polyreactivity”.

For the sequence “QVQLVESGGGLVQAGGSLRLSCAASGIIFRYYTMGWYRQAPGKERELVAAISWGGGSTYYADSVKGRFTISRDYAKNTVYLQMNSLKPEDTAVYYCAAEGLTYYNYREWLYYYWGQGTQVTVSS”, the “polyreactivity (PSR sort gate)” value is recorded as “high polyreactivity”.

On to “QVQLVESGGGLVQAGGSLRLSCAASGIIFSEYAMGWNRKAPGKERELVAAISKSGGRTYYADSVKGRFTISRDNAKNTVYLQMNSLKPEDTAVYYCAARHAPILGDHGMKYWGQGTQVTVSS”, for which the “polyreactivity (PSR sort gate)” value is listed as “high polyreactivity”.

“QVQLVESGGGLVQAGGSLRLSCAASGIIFSEYAMGWYRQAPGKERELVAAISKSGGRTYYADSVKGRFTISRDNAKNTVYLQMNSLKPEDTAVYYCAARHAPILGDHGDYDYWGQGTQVTVSS”: the “polyreactivity (PSR sort gate)” value is recorded as “high polyreactivity”.

As to “QVQLVESGGGLVQAGGSLRLSCAASGIIFSFYAMGWYRQAPGKERELVADITLSGGRTYYADSVKGRFTISRDNAKNTVYLQMNSLKPEDTAVYYCNADTYERGDYWGQGTQVTVSS”, the “polyreactivity (PSR sort gate)” value is “high polyreactivity”.

With “QVQLVESGGGLVQAGGSLRLSCAASGIIFSGNAMGWYRQAPGKERELVAAITRGGRTYYADSVKGRFTISRDNAKNTVFFQFNSLKPEDTAVYYCGAGYPYSYREYYYWGQGSQVTVSS”, the “polyreactivity (PSR sort gate)” value is “high polyreactivity”.

Take “QVQLVESGGGLVQAGGSLRLSCAASGIIFSGNAMGWYRQAPGKERELVAAITRGGRTYYADSVKGRFTISRDNAKNTVYLQMNSLKPEDTAVYYCAAGYPYSYRDYYYWGQGTQVTVSS”: the “polyreactivity (PSR sort gate)” value is given as “high polyreactivity”.

“QVQLVESGGGLVQAGGSLRLSCAASGIIFSGYAMGWYRQAPGKERELVAVISSSGGGTYYADSVKGRFTISRDKAKNTVYLQMNSLIPEDTAVYYCAARGREAIHGYWGQGTQVTLSS”: the “polyreactivity (PSR sort gate)” value is reported as “high polyreactivity”.

For the sequence “QVQLVESGGGLVQAGGSLRLSCAASGIIFSGYVMGWYRQAPGKERELVAAIRWNGGNTYYADSVKGRFTISRDNAKNTVYLQMNSLKPEDTAVYYCAGRVRRPYSSLDYWGQGSQVTVSS”, the “polyreactivity (PSR sort gate)” value is recorded as “high polyreactivity”.

For the sequence “QVQLVESGGGLVQAGGSLRLSCAASGIIFSIYVMGWYRQAPGKERELVAAISSNGGSTYYADSVKGRFTISRDNAKNTVYLQMNSLKPEDTAVYYCAAVSRSHYYYWGQGTQVTVSS”, the “polyreactivity (PSR sort gate)” value is reported as “high polyreactivity”.

With “QVQLVESGGGLVQAGGSLRLSCAASGIIFSKYAMGWYRQAPGKERELVARISWRGGDTYYADSVKGRFTISRDNAKNTVYLQMNSLKPEDTAVYYCNARIWGRYFSYTRFDYWGQGTQVTVSS”, the “polyreactivity (PSR sort gate)” value is listed as “high polyreactivity”.

For the sequence “QVQLVESGGGLVQAGGSLRLSCAASGIIFSLKTMGGYRQAPGKERELVAAISSSGGSTYYADSVKGRFTISRDNAKNCVYVQMNSLKPEDTAVYYCARRYAPNTSLTFYYWGQGTQVTVSS”, the “polyreactivity (PSR sort gate)” value was “low polyreactivity”.

“QVQLVESGGGLVQAGGSLRLSCAASGIIFSPYAMGWYRQAPGKERELVAAINFSTGRTYYADSVKGRFTISRDNAKNTVYLQMNSLKPEDTAVYYCAAGKYPYVFRGGYDYWGQGTQVTVSS”: the “polyreactivity (PSR sort gate)” value is recorded as “low polyreactivity”.

In the case of “QVQLVESGGGLVQAGGSLRLSCAASGIIFSQYAMGWYRQAPGKERELVAGITRSGGSTYYADSVKGRFSISRDNAKNTVYLQMNSLKPDDTAVYYCAAVQRYEYGYWGQGTQVTVSS”, the “polyreactivity (PSR sort gate)” value was “high polyreactivity”.

For the sequence “QVQLVESGGGLVQAGGSLRLSCAASGIIFSRYAMGWYRPAPGKVRELVASITGRVGSTYYADSVKGPFTISRDNAKNTVYLQMNRLNPEDTAVYYCAADYVYKFDYWGHGTQVTVSS”, the “polyreactivity (PSR sort gate)” value is given as “low polyreactivity”.

For “QVQLVESGGGLVQAGGSLRLSCAASGIIFSSYAMGWYRQAPGKERELVAAIDWRGDSTYYADSVKGRFTISRDNAKNTVYLQMNSLKPEDTAVYYCAADGSTYDSVRYGYWGQGTQVTVSS”, the “polyreactivity (PSR sort gate)” value is reported as “low polyreactivity”.

As to “QVQLVESGGGLVQAGGSLRLSCAASGIIFSSYAMGWYRQAPGKERELVAAITSGGNTNYADSVKGRFTISRDNAKNTVYLQMNSLKTEDISVYYCNADTSFVWLAWHQYGFGYWGQGTQVTLSS”, the “polyreactivity (PSR sort gate)” value was “low polyreactivity”.

On to “QVQLVESGGGLVQAGGSLRLSCAASGIIFSSYAMGWYRQAPGKERELVAAITYNGGRTYYADSVKGRFTISRDNAKNTVYLQMNSVKPEDTAVYYCAAERYPYGVTYSKLDYWGQGTQVTVSS”, for which the “polyreactivity (PSR sort gate)” value is reported as “high polyreactivity”.

“QVQLVESGGGLVQAGGSLRLSCAASGIIFSVNAMGWYRQAPGTERELVAAISSSGGDTYYADSVKGRFTISRDNAKNTVYLQMNSLKPEDTAVYYCAASVEQPGLAYDYWGQGTQVTVSS”: the “polyreactivity (PSR sort gate)” value is on record as “low polyreactivity”.

“QVQLVESGGGLVQAGGSLRLSCAASGIIFSYNAMGWYRQAPGKERELVAAITSGGITNYADSVKGRFTISRDNAKNTVYLQMNSLKPEDTAVYYCAAEVWRYYRRDYWGQGTQVTVSS”: the “polyreactivity (PSR sort gate)” value is “low polyreactivity”.

For “QVQLVESGGGLVQAGGSLRLSCAASGIIFSYYDMGWYRQAPGKERELVATITGNGGSTYYADSVKGRFTISRDNAKNTVYLQMNSLKPEDTAVYYCAAQTTVYIYDYWGQGTQVTVSS”, the “polyreactivity (PSR sort gate)” value is on record as “low polyreactivity”.

For the sequence “QVQLVESGGGLVQAGGSLRLSCAASGIIFTDNAMGWYRQAPGKERELVATISWSTDNTYYADSVKGRFTISRDNAKNTVYLQMNSLKPEDTAVYYCAAEEYYAYWYQYDYWGQGTQVTVSS”, the “polyreactivity (PSR sort gate)” value is “low polyreactivity”.

For the sequence “QVQLVESGGGLVQAGGSLRLSCAASGIIFTDYAMGWYRQAPGKERELVAAISSGGGSTYYADSVKGRFTNSRDYAKNTVYLQMNSLKPEDTAVYYCAAQTSGSYGFDHWGQGTQVTVSS”, the “polyreactivity (PSR sort gate)” value is reported as “high polyreactivity”.

Take “QVQLVESGGGLVQAGGSLRLSCAASGIIFTHNAMGWYRQAPGKERELVAAISWSGGSTYYADSVKGRFTISRDNAKNTVYLQMNSLKPEDTAVYYCNAKFKQSYAQVAKFNSWGQGTQVTVSS”: the “polyreactivity (PSR sort gate)” value was “low polyreactivity”.

“QVQLVESGGGLVQAGGSLRLSCAASGIIFTLYAMGWYRQAPGKERELVATISTGGGTYYADSVKGRFTISRDNAKNTVYLQMNSLKPEDTAVYYCAAKRYWNFRYDYWGQGTQVTVSS”: the “polyreactivity (PSR sort gate)” value is “high polyreactivity”.

On to “QVQLVESGGGLVQAGGSLRLSCAASGIIFTLYATGWYRQAPGKERELVAAISGSGGSTYYADSVKGRFTISRDNAKNTVYLQMNSLKPEDTAVYYCAARGVRGTGLDSRMYYWGQGTQVTVSS”, for which the “polyreactivity (PSR sort gate)” value is on record as “high polyreactivity”.

Regarding “QVQLVESGGGLVQAGGSLRLSCAASGIIFTQNGMGVYRPAPGKERELVAAISWSAGGTYYADSVKGRFTISRDNAKNTVYLQMNSLIPEDTAVYYCNARVYNVFREFNSWGQGTQVTVSS”, the “polyreactivity (PSR sort gate)” value is “low polyreactivity”.

Regarding “QVQLVESGGGLVQAGGSLRLSCAASGIIFTSNTMGWYRQAPGKVREFVASINWNGSSTYADSVKGRFTISRDNAKYTVYLQMNSLKPEDTAVYSCNADYNRNSVQFSLYDYWGQGTQVTVSS”, the “polyreactivity (PSR sort gate)” value is recorded as “low polyreactivity”.

Take “QVQLVESGGGLVQAGGSLRLSCAASGIIFTTNAMGWYRQAPGKERELVATITSGGGTYYADSVKGRFTISRDNAKNTVYLQMNSLKPEDTAVYYCAATPGWGPWIFDHSYVDFDYWGQGTQVTVSS”: the “polyreactivity (PSR sort gate)” value is given as “low polyreactivity”.

As to “QVQLVESGGGLVQAGGSLRLSCAASGIIFTTNMGWYRQAPGKERELVATIRVNGGRTYYADSVKGRFTISRDNAQNTVYLQMNSLKPEDTAVYYCAARYSAGAQRYGYWGQGTQVTVSS”, the “polyreactivity (PSR sort gate)” value is reported as “high polyreactivity”.

Regarding “QVQLVESGGGLVQAGGSLRLSCAASGIIFTYYAMGWYRPAPGKERELVAAISSGGGSTYYADSVKGRFTISRDNAKITVYLQMNSLKPEDTAVYYCNADYYFVYTYLHDYWGQGTQVTVSS”, the “polyreactivity (PSR sort gate)” value is “low polyreactivity”.
